Source: PMC9135340
Like-named read-outs stand apart in the source and are kept apart here.

Columns and labels:
PTCH2 (Homo sapiens) [1] = target: PTCH2 (Homo sapiens) (UniProt Q9Y6C5); details: cited from earlier work
PTCH1 (Homo sapiens) [2] = target: PTCH1 (Homo sapiens) (UniProt Q13635); details: cited from earlier work
[3] = target: recombinant PTCH2 (amino acids 79 to 379; putative loop 1 ligand binding region) (UniProt Q9Y6C5); experiment: SPR; Biacore T100; rPTCH2-His immobilised on a nickel chip; rTRP120-TR or rTrx injected at 2-fold dilutions (800nM to 25nM); three independent experiments
recombinant PTCH2 (amino acids 79 to 379; putative loop 1 ligand binding region), sequence (Q9Y6C5 79-379): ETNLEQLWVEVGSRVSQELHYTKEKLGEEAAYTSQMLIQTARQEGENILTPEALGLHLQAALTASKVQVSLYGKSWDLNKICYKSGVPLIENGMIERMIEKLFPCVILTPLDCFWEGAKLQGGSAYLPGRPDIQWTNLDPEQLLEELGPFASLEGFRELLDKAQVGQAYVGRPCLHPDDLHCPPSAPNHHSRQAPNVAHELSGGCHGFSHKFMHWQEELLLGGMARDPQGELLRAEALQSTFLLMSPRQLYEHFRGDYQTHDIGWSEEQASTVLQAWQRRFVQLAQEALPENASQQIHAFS

PTCH2 (Homo sapiens) [4] = target: PTCH2 (Homo sapiens) (UniProt Q9Y6C5); details: cited from earlier work; remark: listed apart in the source
PTCH1 (Homo sapiens) [5] = target: PTCH1 (Homo sapiens) (UniProt Q13635); details: cited from earlier work; remark: listed apart in the source
PTCH2 (Homo sapiens) [6] = target: PTCH2 (Homo sapiens) (UniProt Q9Y6C5); details: cited from earlier work; remark: listed apart in the source
PTCH1 (Homo sapiens) [7] = target: PTCH1 (Homo sapiens) (UniProt Q13635); details: cited from earlier work; remark: listed apart in the source

PTCH2 (Homo sapiens), sequence (Q9Y6C5 whole entry): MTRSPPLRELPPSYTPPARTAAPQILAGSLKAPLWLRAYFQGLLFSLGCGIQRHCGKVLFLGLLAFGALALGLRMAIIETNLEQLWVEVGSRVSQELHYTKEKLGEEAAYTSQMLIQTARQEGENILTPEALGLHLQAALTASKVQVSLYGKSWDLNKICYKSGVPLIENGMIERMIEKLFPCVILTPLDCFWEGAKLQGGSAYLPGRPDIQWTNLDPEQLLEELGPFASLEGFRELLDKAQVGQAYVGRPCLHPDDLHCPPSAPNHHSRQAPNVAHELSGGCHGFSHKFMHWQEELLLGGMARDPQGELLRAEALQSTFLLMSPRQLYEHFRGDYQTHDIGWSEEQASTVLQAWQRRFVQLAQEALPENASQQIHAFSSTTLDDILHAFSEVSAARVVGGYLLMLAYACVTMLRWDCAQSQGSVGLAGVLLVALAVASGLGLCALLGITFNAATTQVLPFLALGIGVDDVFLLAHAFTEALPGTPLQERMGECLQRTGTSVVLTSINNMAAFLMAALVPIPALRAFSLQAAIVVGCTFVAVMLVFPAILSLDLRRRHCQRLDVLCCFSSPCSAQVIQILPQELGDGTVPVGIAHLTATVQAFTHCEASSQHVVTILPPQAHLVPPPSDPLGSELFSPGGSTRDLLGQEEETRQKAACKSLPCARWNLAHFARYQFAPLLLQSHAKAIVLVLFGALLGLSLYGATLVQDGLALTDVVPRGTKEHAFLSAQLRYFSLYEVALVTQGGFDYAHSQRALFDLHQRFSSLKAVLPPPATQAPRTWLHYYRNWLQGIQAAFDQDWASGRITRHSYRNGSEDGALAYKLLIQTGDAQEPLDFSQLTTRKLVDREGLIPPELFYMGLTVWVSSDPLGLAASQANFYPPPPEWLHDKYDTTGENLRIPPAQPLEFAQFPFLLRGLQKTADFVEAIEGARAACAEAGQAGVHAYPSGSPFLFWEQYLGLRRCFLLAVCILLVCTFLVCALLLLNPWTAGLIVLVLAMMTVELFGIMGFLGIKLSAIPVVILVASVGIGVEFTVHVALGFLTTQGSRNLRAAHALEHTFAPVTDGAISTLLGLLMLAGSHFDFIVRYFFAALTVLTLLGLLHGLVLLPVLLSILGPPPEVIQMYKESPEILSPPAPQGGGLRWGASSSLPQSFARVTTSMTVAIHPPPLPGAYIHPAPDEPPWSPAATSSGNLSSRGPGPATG
PTCH1 (Homo sapiens), sequence (Q13635 whole entry, the tested form may be a part): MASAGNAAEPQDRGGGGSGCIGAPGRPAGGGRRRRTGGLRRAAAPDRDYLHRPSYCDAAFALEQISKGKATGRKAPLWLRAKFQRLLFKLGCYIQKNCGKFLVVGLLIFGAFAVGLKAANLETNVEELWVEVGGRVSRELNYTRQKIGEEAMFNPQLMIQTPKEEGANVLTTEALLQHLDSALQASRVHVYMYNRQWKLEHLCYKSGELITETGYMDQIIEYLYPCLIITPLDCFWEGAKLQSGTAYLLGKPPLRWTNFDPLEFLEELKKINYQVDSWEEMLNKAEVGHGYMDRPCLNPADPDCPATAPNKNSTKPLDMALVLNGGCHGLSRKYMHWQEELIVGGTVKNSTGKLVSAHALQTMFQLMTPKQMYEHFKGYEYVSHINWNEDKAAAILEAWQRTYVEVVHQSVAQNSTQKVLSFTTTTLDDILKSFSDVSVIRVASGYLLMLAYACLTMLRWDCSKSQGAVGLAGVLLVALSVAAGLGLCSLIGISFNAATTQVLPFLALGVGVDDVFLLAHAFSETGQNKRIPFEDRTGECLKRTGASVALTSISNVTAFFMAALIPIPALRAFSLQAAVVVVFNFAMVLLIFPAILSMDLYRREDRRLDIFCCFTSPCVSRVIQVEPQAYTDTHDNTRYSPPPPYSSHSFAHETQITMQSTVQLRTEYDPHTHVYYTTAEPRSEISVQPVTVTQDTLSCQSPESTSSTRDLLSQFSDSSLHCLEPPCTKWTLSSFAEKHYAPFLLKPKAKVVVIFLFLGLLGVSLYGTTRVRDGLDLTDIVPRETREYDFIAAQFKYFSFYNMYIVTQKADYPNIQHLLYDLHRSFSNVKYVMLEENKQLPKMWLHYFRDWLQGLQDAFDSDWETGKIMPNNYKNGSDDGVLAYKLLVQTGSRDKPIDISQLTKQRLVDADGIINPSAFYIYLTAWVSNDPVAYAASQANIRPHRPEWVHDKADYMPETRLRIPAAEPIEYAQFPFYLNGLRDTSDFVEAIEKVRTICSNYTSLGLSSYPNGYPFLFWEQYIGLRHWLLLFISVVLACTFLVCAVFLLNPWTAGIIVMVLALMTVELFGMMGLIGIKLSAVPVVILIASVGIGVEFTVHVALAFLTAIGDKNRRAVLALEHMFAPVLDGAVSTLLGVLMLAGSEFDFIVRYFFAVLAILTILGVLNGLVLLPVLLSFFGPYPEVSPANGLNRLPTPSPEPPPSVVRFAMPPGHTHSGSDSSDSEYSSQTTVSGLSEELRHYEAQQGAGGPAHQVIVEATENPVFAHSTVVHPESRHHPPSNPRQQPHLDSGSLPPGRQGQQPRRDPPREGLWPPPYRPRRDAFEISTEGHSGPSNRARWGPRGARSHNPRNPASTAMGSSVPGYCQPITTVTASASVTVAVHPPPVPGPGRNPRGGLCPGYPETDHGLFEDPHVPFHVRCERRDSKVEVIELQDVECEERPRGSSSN
Ihh, sequence (Q14623 28-202): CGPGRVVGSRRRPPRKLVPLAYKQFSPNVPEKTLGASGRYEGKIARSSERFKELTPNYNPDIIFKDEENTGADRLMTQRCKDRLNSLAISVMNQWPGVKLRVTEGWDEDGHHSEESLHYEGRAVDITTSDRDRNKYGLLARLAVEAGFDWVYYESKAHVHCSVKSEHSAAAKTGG

Shh (from UniProt Q15465)
Kd (PTCH2 (Homo sapiens) [1]): 1.8 nM | Kd (PTCH1 (Homo sapiens) [2]): 1 nM

recombinant TRP120 tandem repeat domain (rTRP120-TR) (domain or fragment)
Kd [3]: 4.4 nM

Dhh (from UniProt O43323)
Kd (PTCH2 (Homo sapiens) [4]): 0.6 nM | Kd (PTCH1 (Homo sapiens) [5]): 2.6 nM

Ihh (from UniProt Q14623)
Kd (PTCH2 (Homo sapiens) [6]): 0.4 nM | Kd (PTCH1 (Homo sapiens) [7]): 1 nM
